Source: patent publication US20150344570A1 (published 2015)

T1: FcγRIIb (human, UniProt P31994 43-217)
T1 construct: extracellular domain; also called FcgRIIb; 2b
T1 sequence (looked up): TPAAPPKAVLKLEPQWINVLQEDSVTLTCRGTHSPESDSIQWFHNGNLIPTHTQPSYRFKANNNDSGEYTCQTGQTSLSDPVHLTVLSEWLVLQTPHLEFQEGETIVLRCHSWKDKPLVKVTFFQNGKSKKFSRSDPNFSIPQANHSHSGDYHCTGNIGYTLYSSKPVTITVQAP


Key:
FcγRIIIa [1] = molecular target: T2, FcγRIIIa (human, UniProt P08637 17-208); assay: SPR (Biacore), relative binding
T2 construct: extracellular domain; also called FcgRIIIa; 3a
T2 sequence (P08637 17-208): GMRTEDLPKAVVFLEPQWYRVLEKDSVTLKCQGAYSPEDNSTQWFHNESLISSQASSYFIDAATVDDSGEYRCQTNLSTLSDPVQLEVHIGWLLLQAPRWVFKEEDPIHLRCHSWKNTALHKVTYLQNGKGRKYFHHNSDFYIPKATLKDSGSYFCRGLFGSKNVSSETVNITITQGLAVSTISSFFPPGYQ

FcγRIIb = molecular target: T1, FcγRIIb; assay: SPR (Biacore), relative binding
FcγRIIIa [2] = molecular target: T2, FcγRIIIa; assay: SPR; He/Con_3a divided by He/Con_2b (FcγRIIIa against FcγRIIb)

He/Con_3a (FcγRIIIa [1]) | He/Con_2b (FcγRIIb) | He_3a/2b (IIIa/IIb) (FcγRIIIa [2]) [ratio] | Binder
-0.5 % of GpH7-A5/GpH7-B3/GpL16-k0 | 1.1 % of GpH7-A5/GpH7-B3/GpL16-k0 | -0.48 | GpH7-A5/GpH7-B3 variant D265_20W/GpL16-k0 (antibody, human IgG1, kappa, mutation in the GpH7-B3 chain only; also called He Ab) heavy 1: not shown heavy 2: not shown light: DIVMTQSPLSLPVTPGEPASISCQASESLVHSNRNTYLHWYLQKPGQSPQLLIYKVSNRFSGVPDRFSGSGSGTDFTLKISRVEAEDVGVYYCSQNTHVPPTFGQGTKVEIERTVAAPSVFIFPPSDEQLKSGTASVVCLLNNFYPREAKVQWKVDNALQSGNSQESVTEQDSKDSTYSLSSTLTLSKADYEKHKVYACEVTHQGLSSPVTKSFNRGEC
4.6 % of GpH7-A5/GpH7-B3/GpL16-k0 | 6.1 % of GpH7-A5/GpH7-B3/GpL16-k0 | 0.74 | GpH7-A5/GpH7-B3 variant D265_18N/GpL16-k0 (antibody, human IgG1, kappa, mutation in the GpH7-B3 chain only; also called He Ab) heavy 1: not shown heavy 2: not shown light: DIVMTQSPLSLPVTPGEPASISCQASESLVHSNRNTYLHWYLQKPGQSPQLLIYKVSNRFSGVPDRFSGSGSGTDFTLKISRVEAEDVGVYYCSQNTHVPPTFGQGTKVEIERTVAAPSVFIFPPSDEQLKSGTASVVCLLNNFYPREAKVQWKVDNALQSGNSQESVTEQDSKDSTYSLSSTLTLSKADYEKHKVYACEVTHQGLSSPVTKSFNRGEC
13.6 % of GpH7-A5/GpH7-B3/GpL16-k0 | 38.3 % of GpH7-A5/GpH7-B3/GpL16-k0 | 0.35 | GpH7-A5/GpH7-B3 variant D265_16H/GpL16-k0 (antibody, human IgG1, kappa, mutation in the GpH7-B3 chain only; also called He Ab) heavy 1: not shown heavy 2: not shown light: DIVMTQSPLSLPVTPGEPASISCQASESLVHSNRNTYLHWYLQKPGQSPQLLIYKVSNRFSGVPDRFSGSGSGTDFTLKISRVEAEDVGVYYCSQNTHVPPTFGQGTKVEIERTVAAPSVFIFPPSDEQLKSGTASVVCLLNNFYPREAKVQWKVDNALQSGNSQESVTEQDSKDSTYSLSSTLTLSKADYEKHKVYACEVTHQGLSSPVTKSFNRGEC
2.6 % of GpH7-A5/GpH7-B3/GpL16-k0 | 10 % of GpH7-A5/GpH7-B3/GpL16-k0 | 0.26 | GpH7-A5/GpH7-B3 variant D265_06M/GpL16-k0 (antibody, human IgG1, kappa, mutation in the GpH7-B3 chain only; also called He Ab) heavy 1: not shown heavy 2: not shown light: DIVMTQSPLSLPVTPGEPASISCQASESLVHSNRNTYLHWYLQKPGQSPQLLIYKVSNRFSGVPDRFSGSGSGTDFTLKISRVEAEDVGVYYCSQNTHVPPTFGQGTKVEIERTVAAPSVFIFPPSDEQLKSGTASVVCLLNNFYPREAKVQWKVDNALQSGNSQESVTEQDSKDSTYSLSSTLTLSKADYEKHKVYACEVTHQGLSSPVTKSFNRGEC
15.7 % of GpH7-A5/GpH7-B3/GpL16-k0 | 31.5 % of GpH7-A5/GpH7-B3/GpL16-k0 | 0.5 | GpH7-A5/GpH7-B3 variant S267_05P/GpL16-k0 (antibody, human IgG1, kappa, mutation in the GpH7-B3 chain only; also called He Ab) heavy 1: not shown heavy 2: not shown light: DIVMTQSPLSLPVTPGEPASISCQASESLVHSNRNTYLHWYLQKPGQSPQLLIYKVSNRFSGVPDRFSGSGSGTDFTLKISRVEAEDVGVYYCSQNTHVPPTFGQGTKVEIERTVAAPSVFIFPPSDEQLKSGTASVVCLLNNFYPREAKVQWKVDNALQSGNSQESVTEQDSKDSTYSLSSTLTLSKADYEKHKVYACEVTHQGLSSPVTKSFNRGEC
3.9 % of GpH7-A5/GpH7-B3/GpL16-k0 | 11.3 % of GpH7-A5/GpH7-B3/GpL16-k0 | 0.35 | GpH7-A5/GpH7-B3 variant D265_13S/GpL16-k0 (antibody, human IgG1, kappa, mutation in the GpH7-B3 chain only; also called He Ab) heavy 1: not shown heavy 2: not shown light: DIVMTQSPLSLPVTPGEPASISCQASESLVHSNRNTYLHWYLQKPGQSPQLLIYKVSNRFSGVPDRFSGSGSGTDFTLKISRVEAEDVGVYYCSQNTHVPPTFGQGTKVEIERTVAAPSVFIFPPSDEQLKSGTASVVCLLNNFYPREAKVQWKVDNALQSGNSQESVTEQDSKDSTYSLSSTLTLSKADYEKHKVYACEVTHQGLSSPVTKSFNRGEC
0 % of GpH7-A5/GpH7-B3/GpL16-k0 | 3.2 % of GpH7-A5/GpH7-B3/GpL16-k0 | 0 | GpH7-A5/GpH7-B3 variant D265_04F/GpL16-k0 (antibody, human IgG1, kappa, mutation in the GpH7-B3 chain only; also called He Ab) heavy 1: not shown heavy 2: not shown light: DIVMTQSPLSLPVTPGEPASISCQASESLVHSNRNTYLHWYLQKPGQSPQLLIYKVSNRFSGVPDRFSGSGSGTDFTLKISRVEAEDVGVYYCSQNTHVPPTFGQGTKVEIERTVAAPSVFIFPPSDEQLKSGTASVVCLLNNFYPREAKVQWKVDNALQSGNSQESVTEQDSKDSTYSLSSTLTLSKADYEKHKVYACEVTHQGLSSPVTKSFNRGEC
-0.8 % of GpH7-A5/GpH7-B3/GpL16-k0 | 1.3 % of GpH7-A5/GpH7-B3/GpL16-k0 | -0.61 | GpH7-A5/GpH7-B3 variant D265_07I/GpL16-k0 (antibody, human IgG1, kappa, mutation in the GpH7-B3 chain only; also called He Ab) heavy 1: not shown heavy 2: not shown light: DIVMTQSPLSLPVTPGEPASISCQASESLVHSNRNTYLHWYLQKPGQSPQLLIYKVSNRFSGVPDRFSGSGSGTDFTLKISRVEAEDVGVYYCSQNTHVPPTFGQGTKVEIERTVAAPSVFIFPPSDEQLKSGTASVVCLLNNFYPREAKVQWKVDNALQSGNSQESVTEQDSKDSTYSLSSTLTLSKADYEKHKVYACEVTHQGLSSPVTKSFNRGEC
150 % of GpH7-A5/GpH7-B3/GpL16-k0 | 243 % of GpH7-A5/GpH7-B3/GpL16-k0 | 0.62 | GpH7-A5/GpH7-B3 variant S267_02A/GpL16-k0 (antibody, human IgG1, kappa, mutation in the GpH7-B3 chain only; also called He Ab) heavy 1: not shown heavy 2: not shown light: DIVMTQSPLSLPVTPGEPASISCQASESLVHSNRNTYLHWYLQKPGQSPQLLIYKVSNRFSGVPDRFSGSGSGTDFTLKISRVEAEDVGVYYCSQNTHVPPTFGQGTKVEIERTVAAPSVFIFPPSDEQLKSGTASVVCLLNNFYPREAKVQWKVDNALQSGNSQESVTEQDSKDSTYSLSSTLTLSKADYEKHKVYACEVTHQGLSSPVTKSFNRGEC
20.1 % of GpH7-A5/GpH7-B3/GpL16-k0 | 38.2 % of GpH7-A5/GpH7-B3/GpL16-k0 | 0.53 | GpH7-A5/GpH7-B3 variant D265_10E/GpL16-k0 (antibody, human IgG1, kappa, mutation in the GpH7-B3 chain only; also called He Ab) heavy 1: not shown heavy 2: not shown light: DIVMTQSPLSLPVTPGEPASISCQASESLVHSNRNTYLHWYLQKPGQSPQLLIYKVSNRFSGVPDRFSGSGSGTDFTLKISRVEAEDVGVYYCSQNTHVPPTFGQGTKVEIERTVAAPSVFIFPPSDEQLKSGTASVVCLLNNFYPREAKVQWKVDNALQSGNSQESVTEQDSKDSTYSLSSTLTLSKADYEKHKVYACEVTHQGLSSPVTKSFNRGEC
